Data as given in patent US20220403023A1 (WUXI BIOLOGICS IRELAND, published 2022).

Tests used:
PD-1.his [1] = target: T1, PD-1.his (Homo sapiens (Human), UniProt Q15116 25-170); test: ELISA, protein coated at 1 µg/mL
HER3.his [2] = target: T2, HER3.his (Homo sapiens (Human), UniProt P21860 20-643); test: ELISA, protein coated at 1 µg/mL
HSA. [3] = target: T3, HSA. (UniProt P02768 25-609); test: ELISA, protein coated at 1 µg/mL
[4] = target: T4, CD47 on human red blood cells (human, UniProt Q08722 19-323); test: FACS on human red blood cells, goat anti-human IgG-Fc PE
T4 construct: whole, on cells; also called human RBCs; hRBC
Description: (§1) The cells were washed twice with 180 μL 1% BSA-PBS. The secondary antibody, Goat Anti-human IgG-Fc PE was added to re-suspend cells and incubated at 4° C. in the dark for 30 min followed by washing with 180 μL 1% BSA-PBS. At the end, the cells were re-suspended in 100 μL 1% BSA-PBS, and the fluorescence intensity was measured by FACS (BD Canto II) and analyzed by FlowJo Version software. The binding EC50s were calculated by using GraphPad Prism software equation: Nonlinear regression (curve fit)—log (agonist) vs. response—Variable slope.

Factor Eight = test: non-specific binding ELISA, protein coated 1 µg/mL, lead antibody at 10 ug/ml
Description: (§2) The 96-well high binding plates were coated with 14 different proteins at 1 μg/mL at 4° C. overnight and blocked with 2% BSA-PBS for 1 hr. […] Then the Goat anti-human IgG-Fc-HRP secondary antibody was added and incubated for 1 hr. The TMB peroxidase substrate solution was added and then reaction was stopped after 12 minutes using 2M HCl. All incubation steps were performed at room temperature, and the plates were washed 5 times with PBST at pH 7.4 between steps. The absorbance of testing samples was measured at 450 nm with a multiwall plate reader (SpectraMax® M5e).

FGFR.his = test: as above
Description: as §2

CD147.his = test: as above
Description: as §2

PD-1.his [5] = target: T1, PD-1.his; test: as above
Description: as §2

CTLA4.his = test: as above
Description: as §2

VEGFR2.his = test: as above
Description: as §2

CD22.his = test: as above
Description: as §2

VEGF.his = test: as above
Description: as §2

CD3.his = test: as above
Description: as §2

HER3.his [6] = target: T2, HER3.his; test: as above
Description: as §2

OX40.his = test: as above
Description: as §2

4-1B8.his = test: as above
Description: as §2

CD40.his = test: as above
Description: as §2

HSA. [7] = target: T3, HSA.; test: as above
Description: as §2

human CD47 ECD protein [8] = target: T5, human CD47 ECD protein (human, UniProt Q08722 19-139, limits assumed); test: ELISA on plate-coated human CD47 ECD (1 µg/mL), goat anti-human IgG-Fc-HRP, OD450
T5 construct: extracellular domain; The assays say only 'human CD47 ECD protein' / 'Human CD47 protein'; 55 kDa was used as molecular weight in SPR; also called human CD47 protein; W345-hPro1.ECD (sino)
Description: Then the Goat anti-human IgG-Fc-HRP secondary antibody was added and incubated for 1 hr. […] All incubation steps were performed at room temperature, and the plates were washed 5 times with PBST at pH 7.4 between steps.

[9] = target: T6, human CD47 on engineered CHO-K1 cells (human, UniProt Q08722 19-323); test: FACS on CHO-K1 cells expressing human CD47 (CHOK1-huCD47), goat anti-human IgG-Fc PE
T6 construct: whole, on cells; also called human CD47-expressing cells
Description: as §1, with “Briefly, the engineered CD47-expressing cells were coated into 96-well U-bottom plates at a density of 1×10⁵ cells/well and centrifuged at 1500 rpm at 4° C. for 4 min before removing the supernatant. […] The cells” for “The cells”

human CD47 ECD protein [10] = target: T5, human CD47 ECD protein; test: SPR Biacore T200, antibody captured on anti-human IgG Fc chip, human CD47 as analyte, 1:1 model
Description: Each antibody was captured on an anti-human IgG Fc antibody immobilized CMS sensor chip (GE). Human CD47 protein at different concentrations were injected over the sensor chip at a flow rate of 30 uL/min for an association phase of 180 s, followed by 3600 s dissociation. The chip was regenerated by 10 mM glycine (pH 1.5) after each binding cycle. The sensorgrams of blank surface and buffer channel were subtracted from the test sensorgrams. The experimental data was fitted by 1:1 model using Langmiur analysis. Molecular weight of 55 kDa was used to calculate the molar concentration of analyte antigen.

[11] = target: T7, cynomolgus monkey CD47 on engineered CHO-K1 cells (cynomolgus monkey, UniProt A0A5F8AK49 19-323 (rhesus entry)); test: FACS on CHO-K1 cells expressing cynomolgus CD47 (CHOK1-cynoCD47), goat anti-human IgG-Fc PE
T7 construct: whole, on cells; also called cyno CD47 expressing cells; cynomolgus monkey CD47-expressing cells
Description: as §1, with “Briefly, the engineered CD47-expressing cells were coated into 96-well U-bottom plates at a density of 1×10⁵ cells/well and centrifuged at 1500 rpm at 4° C. for 4 min before removing the supernatant. […] The cells” for “The cells”

human CD47 ECD protein [12] = target: T5, human CD47 ECD protein; test: competition ELISA: plate-coated human CD47 ECD (1 µg/mL), antibody titrated together with human SIRPα-His (1 µg/mL), bound SIRPα detected with anti-His-HRP
Description: 96-well plates were coated with human CD47 ECD at 1 μg/mL at 4° C. overnight and blocked with 2% BSA-PBS for 1 hr. […] The TMB peroxidase substrate solution was added and then reaction was stopped after 12 minutes using 2M HCl. All incubation steps were performed at room temperature, and the plates were washed with PBST between steps. The absorbance of the testing samples was measured at 450 nm with a multiwall plate reader. The competitive binding IC50s were calculated by using GraphPad Prism software equation: Nonlinear regression (curve fit)—log (antagonist) vs. response—Variable slope.

[13] = target: T6, human CD47 on engineered CHO-K1 cells; test: competition FACS: CHO-K1 cells expressing human CD47, antibody titrated together with human SIRPα-His (1 µg/mL), bound SIRPα detected with anti-His-biotin and streptavidin-PE
Description: At the end, the cells were re-suspended in 100 μL 1% BSA-PBS, and the fluorescence intensity was measured by FACS (BD Canto II) and analyzed by FlowJo Version software. The competitive binding IC50s were calculated by using GraphPad Prism software equation: Nonlinear regression (curve fit)—log (antagonist) vs. response—Variable slope.

T1 sequence (Q15116 25-170 limits assumed): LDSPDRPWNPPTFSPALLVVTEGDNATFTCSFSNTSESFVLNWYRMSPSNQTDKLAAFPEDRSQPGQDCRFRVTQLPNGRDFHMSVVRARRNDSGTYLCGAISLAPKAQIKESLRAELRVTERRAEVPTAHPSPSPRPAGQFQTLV
4-1B8.his, sequence (Q07011 24-186): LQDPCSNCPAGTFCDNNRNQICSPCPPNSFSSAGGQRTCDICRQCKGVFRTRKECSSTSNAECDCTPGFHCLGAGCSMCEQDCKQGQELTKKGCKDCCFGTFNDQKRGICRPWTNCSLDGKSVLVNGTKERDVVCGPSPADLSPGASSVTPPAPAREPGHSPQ
CTLA4.his, sequence (P16410 36-161): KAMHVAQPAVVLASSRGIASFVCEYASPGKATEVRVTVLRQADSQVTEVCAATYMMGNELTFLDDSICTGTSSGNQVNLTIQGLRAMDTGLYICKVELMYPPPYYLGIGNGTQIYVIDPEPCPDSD
VEGF.his, sequence (P15692 whole entry): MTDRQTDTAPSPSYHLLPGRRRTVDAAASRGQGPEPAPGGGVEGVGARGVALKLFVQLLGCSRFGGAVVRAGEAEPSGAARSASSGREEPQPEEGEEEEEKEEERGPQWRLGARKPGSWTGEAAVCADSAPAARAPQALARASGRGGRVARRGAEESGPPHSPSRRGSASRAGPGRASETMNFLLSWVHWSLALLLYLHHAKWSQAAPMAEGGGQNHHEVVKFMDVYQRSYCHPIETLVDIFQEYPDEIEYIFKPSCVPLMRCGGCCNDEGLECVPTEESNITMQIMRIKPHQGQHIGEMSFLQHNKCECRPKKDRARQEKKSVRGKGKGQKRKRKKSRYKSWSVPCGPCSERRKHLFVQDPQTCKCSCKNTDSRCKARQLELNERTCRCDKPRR
OX40.his, sequence (P43489 29-214): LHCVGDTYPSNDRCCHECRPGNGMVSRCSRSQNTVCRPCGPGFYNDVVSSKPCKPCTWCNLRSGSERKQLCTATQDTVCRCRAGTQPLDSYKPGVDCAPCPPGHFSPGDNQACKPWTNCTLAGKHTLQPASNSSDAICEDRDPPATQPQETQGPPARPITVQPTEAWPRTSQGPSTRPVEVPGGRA
VEGFR2.his, sequence (P35968 20-764): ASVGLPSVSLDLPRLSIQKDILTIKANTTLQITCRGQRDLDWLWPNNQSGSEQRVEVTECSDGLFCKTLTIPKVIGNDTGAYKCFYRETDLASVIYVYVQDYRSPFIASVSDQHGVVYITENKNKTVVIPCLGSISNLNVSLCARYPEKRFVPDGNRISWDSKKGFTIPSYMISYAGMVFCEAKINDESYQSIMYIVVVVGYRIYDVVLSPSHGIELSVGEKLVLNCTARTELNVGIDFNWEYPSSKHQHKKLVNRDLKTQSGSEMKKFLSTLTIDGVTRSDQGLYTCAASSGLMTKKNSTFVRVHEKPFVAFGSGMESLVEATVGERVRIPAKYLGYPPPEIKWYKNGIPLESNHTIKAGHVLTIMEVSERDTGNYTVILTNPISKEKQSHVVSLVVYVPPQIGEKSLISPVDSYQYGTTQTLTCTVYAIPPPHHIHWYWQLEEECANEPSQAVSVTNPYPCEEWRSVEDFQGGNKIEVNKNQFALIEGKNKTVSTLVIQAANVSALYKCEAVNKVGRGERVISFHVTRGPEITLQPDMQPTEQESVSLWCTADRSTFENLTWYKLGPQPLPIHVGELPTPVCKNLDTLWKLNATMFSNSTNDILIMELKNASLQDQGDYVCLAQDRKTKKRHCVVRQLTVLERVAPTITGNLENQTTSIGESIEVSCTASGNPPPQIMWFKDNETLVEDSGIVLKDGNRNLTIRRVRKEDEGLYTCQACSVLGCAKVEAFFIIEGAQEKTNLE
CD40.his, sequence (P25942 21-193): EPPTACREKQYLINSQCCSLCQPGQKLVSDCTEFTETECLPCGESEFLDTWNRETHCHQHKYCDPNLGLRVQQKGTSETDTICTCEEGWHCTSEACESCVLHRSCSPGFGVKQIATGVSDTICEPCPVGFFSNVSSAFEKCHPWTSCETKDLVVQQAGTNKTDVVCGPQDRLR

binding result (PD-1.his [1]): no binding (tested: 10 ug/ml)
binding result (HER3.his [2]): no binding (tested: 10 ug/ml)
binding result (HSA. [3]): no binding (tested: 10 ug/ml)
EC50 [4]: 76.7 nM
ELISA-OD450 (Factor Eight): 0.0498
ELISA-OD450 (FGFR.his): 0.138
ELISA-OD450 (CD147.his): 0.0463
ELISA-OD450 (PD-1.his [5]): 0.227
ELISA-OD450 (CTLA4.his): 0.0573
ELISA-OD450 (VEGFR2.his): 0.0452
ELISA-OD450 (CD22.his): 0.0478
ELISA-OD450 (VEGF.his): 0.0475
ELISA-OD450 (CD3.his): 0.0527
ELISA-OD450 (HER3.his [6]): 0.0462
ELISA-OD450 (OX40.his): 0.0487
ELISA-OD450 (4-1B8.his): 0.0551
ELISA-OD450 (CD40.his): 0.209
ELISA-OD450 (HSA. [7]): 0.324
EC50 (human CD47 ECD protein [8]): 0.038 nM
EC50 [9]: 2.99 nM
Kd (human CD47 ECD protein [10]): 0.0223 nM
koff (human CD47 ECD protein [10]): 2.34e-05 s⁻¹
kon (human CD47 ECD protein [10]): 1.05e+06 M⁻¹ s⁻¹
EC50 [11]: 2.71 nM
IC50 (human CD47 ECD protein [12]): 3.21 nM
IC50 [13]: 20.1 nM
B1: W3455-4.9.9-uIgG4.SPL (antibody, V domains shown)
VH: EVQLLESGGGLVQPGGSLRLSCAASGFTFSNFAMSWVRQAPGKGLEWVSTISASGGRTFYADSVKGRITISRDNSKNTLFLQMNGLRAEDTAVYYCAKEGSFGEGVDPWGQGTLVTVSS
VL: SYEMTQPPSVSVSPGQTARITCSGDALPKKYAYWYQQKSGQAPVLVIYEDNKRPSGIPERFSGSSSGTMATLTISGAQVEDEADYYCYSTDISGNHWVFGGGTELTVLG
notes: Fully human anti-CD47 antibody; also called W3455 antibody; WBP3455-4.9.9-uIgG4.SPL
